# Patent publication US20260250398A1
# Molecular target: FZD1/2/4/5/7/8
# Experiment: cell-based or functional assay
Binder,TOPFLASH % Wnt Maxima [% Wnt Maxima],TOPFLASH EC50 [nM],TOPFLASH Maximal Signal (% Wnt3a maxima) (% Wnt3a maxima)
"CT0001 (FZD IgG-LRP Diabody; paratopes 5016; 2539, 2542) (bispecific antibody) heavy 1: EVQLVESGGGLVQPGGSLRLSCAASGFNIHSSSIHWVRQAPGKGLEWVAATYSSFGSITYADSVKGRFTISADTSKNTAYLQMNSLRAEDTAVYYCARYHHPFGYALDYWGQGTLVTVSSASTKGPSVFPLAPSSKSTSGGTAALGCLVKDYFPEPVTVSWNSGALTSGVHTFPAVLQSSGLYSLSSVVTVPSSSLGTQTYICNVNHKPSNTKVDKKVEPKSCDKTHTCPPCPAPELLGGPSVFLFPPKPKDTLMISRTPEVTCVVVDVSHEDPEVKFNWYVDGVEVHNAKTKPREEQYNSTYRVVSVLTVLHQDWLNGKEYKCKVSNKALPAPIEKTISKAKGQPREPQVYTLPPIRELMTSNQVSLSCAVKGFYPSDIAVEWESNGQPENNYKTTPPVLDSDGSFFLVSKLTVDKSRWQQGNVFSCSVMHEALHNHYTQKSLSLSPGKSGSETPGTSESATPESGGGEVQLVESGGGLVQPGGSLRLSCAASGFNISSYYIHWVRQAPGKGLEWVASIYSSYGYTSYADSVKGRFTISADTSKNTAYLQMNSLRAEDTAVYYCARTVRGSKKPYFSGWAMDYWGQGTLVTVSSGGGGSDIQMTQSPSSLSASVGDRVTITCRASQSVSSAVAWYQQKPGKAPKLLIYSASSLYSGVPSRFSGSRSGTDFTLTISSLQPEDFATYYCQQYSWGPFTFGQGTKVEIK heavy 2: EVQLVESGGGLVQPGGSLRLSCAASGFNIHSSSIHWVRQAPGKGLEWVAATYSSFGSITYADSVKGRFTISADTSKNTAYLQMNSLRAEDTAVYYCARYHHPFGYALDYWGQGTLVTVSSASTKGPSVFPLAPSSKSTSGGTAALGCLVKDYFPEPVTVSWNSGALTSGVHTFPAVLQSSGLYSLSSVVTVPSSSLGTQTYICNVNHKPSNTKVDKKVEPKSCDKTHTCPPCPAPELLGGPSVFLFPPKPKDTLMISRTPEVTCVVVDVSHEDPEVKFNWYVDGVEVHNAKTKPREEQYNSTYRVVSVLTVLHQDWLNGKEYKCKVSNKALPAPIEKTISKAKGQPREPMVFDLPPSREEMTKNQVSLWCMVKGFYPSDIAVEWESNGQPENNYKTTPPVLDSDGSFFLYSKLTVDKSRWQQGNVFSCSVMHEALHNHYTQKSLSLSPGKSGSETPGTSESATPESGGGEVQLVESGGGLVQPGGSLRLSCAASGFNISYSSIHWVRQAPGKGLEWVAYISSYYGYTYYADSVKGRFTISADTSKNTAYLQMNSLRAEDTAVYYCARAHYFPWAGAMDYWGQGTLVTVSSGGGGSDIQMTQSPSSLSASVGDRVTITCRASQSVSSAVAWYQQKPGKAPKLLIYSASSLYSGVPSRFSGSRSGTDFTLTISSLQPEDFATYYCQQYYWPITFGQGTKVEIK light: DIQMTQSPSSLSASVGDRVTITCRASQSVSSAVAWYQQKPGKAPKLLIYSASSLYSGVPSRFSGSRSGTDFTLTISSLQPEDFATYYCQQGVYLFTFGQGTKVEIKRTVAAPSVFIFPPSDEQLKSGTASVVCLLNNFYPREAKVQWKVDNALQSGNSQESVTEQDSKDSTYSLSSTLTLSKADYEKHKVYACEVTHQGLSSPVTKSFNRGEC",57,0.3,
"ANT-1 (LRP Diabody-Fc-FZD Fab; paratopes 2540, 2542; 5016) (bispecific antibody) heavy 1: MNLLLILTFVAAAVAEFEVQLVESGGGLVQPGGSLRLSCAASGFNISSYYIHWVRQAPGKGLEWVASIYSSYGYTSYADSVKGRFTISADTSKNTAYLQMNSLRAEDTAVYYCARTVRGSKKPYFSGWAMDYWGQGTLVTVSSGGGGSDIQMTQSPSSLSASVGDRVTITCRASQSVSSAVAWYQQKPGKAPKLLIYSASSLYSGVPSRFSGSRSGTDFTLTISSLQPEDFATYYCQQYYFLITFGQGTKVEIKLEDKTHTKVEPKSSDKTHNCPPCPAPELLGGPSVFLFPPKPKDTLMISRTPEVTCVVVDVSHEDPEVKFNWYVDGVEVHNAKTKPREEQYNSTYRVVSVLTVLHQDWLNGKEYKCKVSNKALPAPIEKTISKAKGQPREPQVYTLPPIRELMTSNQVSLSCAVKGFYPSDIAVEWESNGQPENNYKTTPPVLDSDGSFFLVSKLTVDKSRWQQGNVFSCSVMHEALHNHYTQKSLSLSPGKSGSETPGTSESATPESGGGEVQLVESGGGLVQPGGSLRLSCAASGFNIHSSSIHWVRQAPGKGLEWVAATYSSFGSITYADSVKGRFTISADTSKNTAYLQMNSLRAEDTAVYYCARYHHPFGYALDYWGQGTLVTVSSASTKGPSVFPLAPSSKSTSGGTAALGCLVKDYFPEPVTVSWNSGALTSGVHTFPAVLQSSGLYSLSSVVTVPSSSLGTQTYICNVNHKPSNTKVDKKVEPKSCDKTHT heavy 2: MNLLLILTFVAAAVAEFEVQLVESGGGLVQPGGSLRLSCAASGFNISYSSIHWVRQAPGKGLEWVASISPYYGYTYYADSVKGRFTISADTSKNTAYLQMNSLRAEDTAVYYCARSSYFPWFSAMDYWGQGTLVTVSSGGGGSDIQMTQSPSSLSASVGDRVTITCRASQSVSSAVAWYQQKPGKAPKLLIYSASSLYSGVPSRFSGSRSGTDFTLTISSLQPEDFATYYCQQYYWPITFGQGTKVEIKLEDKTHTKVEPKTSDKTHTCPPCPAPELLGGPSVFLFPPKPKDTLMISRTPEVTCVVVDVSHEDPEVKFNWYVDGVEVHNAKTKPREEQYNSTYRVVSVLTVLHQDWLNGKEYKCKVSNKALPAPIEKTISKAKGQPREPMVFDLPPSREEMTKNQVSLWCMVKGFYPSDIAVEWESNGQPENNYKTTPPVLDSDGSFFLYSKLTVDKSRWQQGNVFSCSVMHEALHNHYTQKSLSLSPGKSGSETPGTSESATPESGGGEVQLVESGGGLVQPGGSLRLSCAASGFNIHSSSIHWVRQAPGKGLEWVAATYSSFGSITYADSVKGRFTISADTSKNTAYLQMNSLRAEDTAVYYCARYHHPFGYALDYWGQGTLVTVSSASTKGPSVFPLAPSSKSTSGGTAALGCLVKDYFPEPVTVSWNSGALTSGVHTFPAVLQSSGLYSLSSVVTVPSSSLGTQTYICNVNHKPSNTKVDKKVEPKSCDKTHT light: DIQMTQSPSSLSASVGDRVTITCRASQSVSSAVAWYQQKPGKAPKLLIYSASSLYSGVPSRFSGSRSGTDFTLTISSLQPEDFATYYCQQGVYLFTFGQGTKVEIKRTVAAPSVFIFPPSDEQLKSGTASVVCLLNNFYPREAKVQWKVDNALQSGNSQESVTEQDSKDSTYSLSSTLTLSKADYEKHKVYACEVTHQGLSSPVTKSFNRGEC",49,0.7,50
"CM0011 (FZD Diabody-Fc-LRP Diabody; paratopes 5019; 2539, 2542) (bispecific antibody) chain 1: MNLLLILTFVAAAVAEFEVQLVESGGGLVQPGGSLRLSCAASGFNIGSSSIHWVRQAPGKGLEWVASIYSAFASTSYADSVKGRFTISADTSKNTAYLQMNSLRAEDTAVYYCARYHFPFGFALDYWGQGTLVTVSSGGGGSDIQMTQSPSSLSASVGDRVTITCRASQSVSSAVAWYQQKPGKAPKLLIYSASSLYSGVPSRFSGSRSGTDFTLTISSLQPEDFATYYCQQGVYLFTFGQGTKVEIKLEDKTHTKVEPKSSDKTHNCPPCPAPELLGGPSVFLFPPKPKDTLMISRTPEVTCVVVDVSHEDPEVKFNWYVDGVEVHNAKTKPREEQYNSTYRVVSVLTVLHQDWLNGKEYKCKVSNKALPAPIEKTISKAKGQPREPQVYTLPPIRELMTSNQVSLSCAVKGFYPSDIAVEWESNGQPENNYKTTPPVLDSDGSFFLVSKLTVDKSRWQQGNVFSCSVMHEALHNHYTQKSLSLSPGKSGSETPGTSESATPESGGGEVQLVESGGGLVQPGGSLRLSCAASGFNISSYYIHWVRQAPGKGLEWVASIYSSYGYTSYADSVKGRFTISADTSKNTAYLQMNSLRAEDTAVYYCARTVRGSKKPYFSGWAMDYWGQGTLVTVSSGGGGSDIQMTQSPSSLSASVGDRVTITCRASQSVSSAVAWYQQKPGKAPKLLIYSASSLYSGVPSRFSGSRSGTDFTLTISSLQPEDFATYYCQQYSWGPFTFGQGTKVEIK chain 2: MNLLLILTFVAAAVAEFEVQLVESGGGLVQPGGSLRLSCAASGFNIGSSSIHWVRQAPGKGLEWVASIYSAFASTSYADSVKGRFTISADTSKNTAYLQMNSLRAEDTAVYYCARYHFPFGFALDYWGQGTLVTVSSGGGGSDIQMTQSPSSLSASVGDRVTITCRASQSVSSAVAWYQQKPGKAPKLLIYSASSLYSGVPSRFSGSRSGTDFTLTISSLQPEDFATYYCQQGVYLFTFGQGTKVEIKLEDKTHTKVEPKTSDKTHTCPPCPAPELLGGPSVFLFPPKPKDTLMISRTPEVTCVVVDVSHEDPEVKFNWYVDGVEVHNAKTKPREEQYNSTYRVVSVLTVLHQDWLNGKEYKCKVSNKALPAPIEKTISKAKGQPREPMVFDLPPSREEMTKNQVSLWCMVKGFYPSDIAVEWESNGQPENNYKTTPPVLDSDGSFFLYSKLTVDKSRWQQGNVFSCSVMHEALHNHYTQKSLSLSPGKSGSETPGTSESATPESGGGEVQLVESGGGLVQPGGSLRLSCAASGFNISYSSIHWVRQAPGKGLEWVAYISSYYGYTYYADSVKGRFTISADTSKNTAYLQMNSLRAEDTAVYYCARAHYFPWAGAMDYWGQGTLVTVSSGGGGSDIQMTQSPSSLSASVGDRVTITCRASQSVSSAVAWYQQKPGKAPKLLIYSASSLYSGVPSRFSGSRSGTDFTLTISSLQPEDFATYYCQQYYWPITFGQGTKVEIK",63,0.3,
"CM0126 (FZD Diabody-Fc-LRP Diabody; paratopes 5016; 2539, 2542) (bispecific antibody) chain 1: MNLLLILTFVAAAVAEFEVQLVESGGGLVQPGGSLRLSCAASGFNIHSSSIHWVRQAPGKGLEWVAATYSSFGSITYADSVKGRFTISADTSKNTAYLQMNSLRAEDTAVYYCARYHHPFGYALDYWGQGTLVTVSSGGGGSDIQMTQSPSSLSASVGDRVTITCRASQSVSSAVAWYQQKPGKAPKLLIYSASSLYSGVPSRFSGSRSGTDFTLTISSLQPEDFATYYCQQGVYLFTFGQGTKVEIKLEDKTHTKVEPKSSDKTHNCPPCPAPELLGGPSVFLFPPKPKDTLMISRTPEVTCVVVDVSHEDPEVKFNWYVDGVEVHNAKTKPREEQYNSTYRVVSVLTVLHQDWLNGKEYKCKVSNKALPAPIEKTISKAKGQPREPQVYTLPPIRELMTSNQVSLSCAVKGFYPSDIAVEWESNGQPENNYKTTPPVLDSDGSFFLVSKLTVDKSRWQQGNVFSCSVMHEALHNHYTQKSLSLSPGKSGSETPGTSESATPESGGGEVQLVESGGGLVQPGGSLRLSCAASGFNISSYYIHWVRQAPGKGLEWVASIYSSYGYTSYADSVKGRFTISADTSKNTAYLQMNSLRAEDTAVYYCARTVRGSKKPYFSGWAMDYWGQGTLVTVSSGGGGSDIQMTQSPSSLSASVGDRVTITCRASQSVSSAVAWYQQKPGKAPKLLIYSASSLYSGVPSRFSGSRSGTDFTLTISSLQPEDFATYYCQQYSWGPFTFGQGTKVEIK chain 2: MNLLLILTFVAAAVAEFEVQLVESGGGLVQPGGSLRLSCAASGFNIHSSSIHWVRQAPGKGLEWVAATYSSFGSITYADSVKGRFTISADTSKNTAYLQMNSLRAEDTAVYYCARYHHPFGYALDYWGQGTLVTVSSGGGGSDIQMTQSPSSLSASVGDRVTITCRASQSVSSAVAWYQQKPGKAPKLLIYSASSLYSGVPSRFSGSRSGTDFTLTISSLQPEDFATYYCQQGVYLFTFGQGTKVEIKLEDKTHTKVEPKTSDKTHTCPPCPAPELLGGPSVFLFPPKPKDTLMISRTPEVTCVVVDVSHEDPEVKFNWYVDGVEVHNAKTKPREEQYNSTYRVVSVLTVLHQDWLNGKEYKCKVSNKALPAPIEKTISKAKGQPREPMVFDLPPSREEMTKNQVSLWCMVKGFYPSDIAVEWESNGQPENNYKTTPPVLDSDGSFFLYSKLTVDKSRWQQGNVFSCSVMHEALHNHYTQKSLSLSPGKSGSETPGTSESATPESGGGEVQLVESGGGLVQPGGSLRLSCAASGFNISYSSIHWVRQAPGKGLEWVAYISSYYGYTYYADSVKGRFTISADTSKNTAYLQMNSLRAEDTAVYYCARAHYFPWAGAMDYWGQGTLVTVSSGGGGSDIQMTQSPSSLSASVGDRVTITCRASQSVSSAVAWYQQKPGKAPKLLIYSASSLYSGVPSRFSGSRSGTDFTLTISSLQPEDFATYYCQQYYWPITFGQGTKVEIK",52,0.3,
